Peptide text beside a SMILES is read from it.
What was measured:
BpsA [1] = molecular target: T1, BpsA (Streptomyces lavendulae, UniProt Q1MWN4); assay: BpsA-mediated synthesis of indigoidine-related pigments from glutamine analogues; assay type: biochemical; details: 4 mM substrate, 1.66 μM BpsA, 25° C., 72 hours
Protocol: For these experiments, BpsA activation was carried out as noted in Example 1. Pre-activated BpsA was incubated at 25° C. for 72 hours in reaction buffer amended with 4 mM of either L-glutamine, L-glycine-L-glutamine (glycyl glutamine), L-alanine-L-glutamine (alanyl glutamine), N-trifluoracetyl-L-glutamine, or no substrate as a control. Pre-activated and buffered BpsA at a final concentration of 1.66 μM was added to a reaction buffer containing 4 mM of each L-glutamine derivative in a final reaction volume of 1000 μL. This was then incubated al 25° C. for 72 hours. Each reaction tube was centrifuged and the supernatant removed. The indigoidine derivatives were then resuspended in 100 μL of 99.9% DMSO to solubilise the precipitated pigment.
The structures of each substrate and the predicted structure of the cyclised indigoidine-like product potentially produced in each reaction are depicted in FIGS. […]. […] The relative absorbance levels of each reaction at the end of the 72 hour incubation period are illustrated in FIG. 8E.

BpsA [2] = molecular target: T1, BpsA; assay: Activation of apo-BpsA to holo-BpsA by PPTase, read out as indigoidine synthesis (A590); assay type: biochemical; details: in vitro, purified His6-tagged PPTase
Protocol: Apo-BpsA was converted to holo-BpsA in vitro, post-purification, as follows. Purified BpsA and Sfp were obtained by standard Ni/NTA chromatography following their expression as His6-tagged recombinant polypeptides. The bpsA and sfp genes were cloned into and expressed from plasmid pET28a+ in E. coli BL21 (DE3) cells, as described for BpsA and other PPTases by Owell et al (2011), with the modification that BpsA expression and purification was performed in an entD gene-deleted strain of E.coli BL21(DE3). This was done to avoid any activation of BpsA by endogenous EntD PPTase prior to BpsA purification.
Reagents were added to a 15 ml tube. This was vortexed for two seconds and transferred to a 30° C. shaking incubator (200 rpm) for 20 minutes to enable 4′-PP attachment to occur. A negative control was set up in the same manner, omitting Sfp and adding 88.16 μL of ddH2O instead of 84.48 μL of ddH2O.
Indigoidine synthesis reactions were performed in triplicate in a 96 well plate to assess whether activated BpsA was generated. For these reactions, 50 μL of 50 mM Tris-HCl, 10 mM MgCl2 in ddH2O was added to each of six wells. […] The 96 well plate was shaken at 1000 rpm and the A590 values (absorbance at 590 nm) were recorded for each well every twenty seconds for 60 minutes. […]

[3] = Stability of BpsA over time on storage; assay type: physicochemical; details: 24 weeks
Protocol: To monitor stability of Bps A over time after storage at these conditions, two BpsA samples were stored, one at 25° C. and one at 4° C. The two samples were then compared to recently purified BpsA. The BpsA stored at 4° C. retained 96% activity and the BpsA stored at 25° C. retained 15% activity after 24 weeks compared to the recently purified BpsA.

[4] = BpsA functionality (indigoidine synthesis from L-glutamine) in the presence of DMSO; assay type: biochemical
Protocol: In these experiments, samples of 500 μM L-glutamine were prepared in ddH2O amended with DMSO to a final DMSO concentration (v/v) of either 0%, 10%, 20%, 30% or 35%. A master mix with final reagent concentrations as indicated in Table 5 was prepared and dispensed into 18 wells of a fresh 96 well plate at a volume of 20 μL per well.
To test whether full L-glutamine conversion had been achieved in the presence of DMSO, 180 μL of DMSO heated to 50° C. was then added to each well to completely solubilise the indigoidine. The 96 well plate was then incubated at room temperature with shaking at 2500 rpm for 10 minutes. Following this, a single A590 reading was taken and the average of the triplicate values were graphed (FIG. 5B).

Molecule	Pigment formation by pre-activated BpsA from the substrate (BpsA [1])	Ability of PPTase to activate BpsA (BpsA [2])	also measured
NC(=O)CC[C@H](NC(=O)C(F)(F)F)C(=O)O [N-trifluoroacetyl-L-glutamine]	used to produce indigoidine-like pigments		
C[C@H](N)C(=O)N[C@@H](CCC(N)=O)C(=O)O [alanyl glutamine, L-alanine-L-glutamine] (H-Ala-Gln-OH)	used to produce indigoidine-like pigments		
NCC(=O)N[C@@H](CCC(N)=O)C(=O)O [glycyl-glutamine, L-glycine-L-glutamine] (H-Gly-Gln-OH)	used to produce indigoidine-like pigments		
PptT: PPTase from Mycobacterium tuberculosis (protein, left off: small tags and cut ends, PPTase from Mycobacterium tuberculosis) MTVGTLVASVLPATVFEDLAYAELYSDPPGLTPLPEEAPLIARSVAKRRNEFITVRHCARIALDQLGVPPAPILKGDKGEPCWPDGMVGSLTHCAGYRGAVVGRRDAVRSVGIDAEPHDVLPNGVLDAISLPAERADMPRTMPAALHWDRILFCAKEATYKAWFPLTKRWLGFEDAHITFETDSTGWTGRFVSRILIDGSTLSGPPLTTLRGRWSVERGLVLTAIVL		similarly able to activate BpsA	
Sfp: PPTase from Bacillus subtilis (protein, left off: small tags and cut ends, PPTase from Bacillus subtilis) MKIYGIYMDRPLSQEENERFMSFISPEKREKCRRFYHKEDAHRTLLGDVLVRSVISRQYQLDKSDIRFSTQEYGKPCIPDLPDAHFNISHSGRWVICAFDSQPIGIDIEKTKPISLEIAKRFFSKTEYSDLLAKDKDEQTDYFYHLWSMKESFIKQEGKGLSLPLDSFSVRLHQDGQVSIELPDSHSPCYIKTYEVDPGYKMAVCAAHPDFPEDITMVSYEELL		effective means of pre-activating BpsA	
BpsA: single module non-ribosomal peptide synthetase from Streptomyces lavendulae, SEQ ID NO:2 (protein, listed as Streptomyces lavendulae) MTLQETSVLEPTLQGTTTLPGLLAQRVAEHPEAIAVAYRDDKLTFRELASRSAALADYLEHLGVSADDCVGLFVEPSIDLMVGAWGILNAGAAYLPLSPEYPEDRLRYMIENSETKIILAQQRLVSRLRELAPKDVTIVTLRESEAFVRPEGTEAPAARSARPDTLAYVIYTSGSTGKPKGVMIEHRSIVNQLGWLRETYAIDRSKVILQKTPMSFDAAQWEILSPANGATVVMGAPGVYADPEGLIETIVKHNVTTLQCVPTLLQGLIDTEKFPECVSLQQIFSGGEALSRLLAIQTTQEMPGRALINVYGPTETTINSSSFPVDPADLDEGPQSISIGSPVHGTTYHILDKETLKPVGVGEIGELYIGGIQLARGYLHRDDLTAERFLEIELEEGAEPVRLYKTGDLGQWNNDGTVQFAGRADNQVKLRGYRVELDEISLAIENHDWVRNAAVIVKNDGRTGFQNLIACIELSEKEAALMDQGNHGSHHASKKSKLQVKAQLSNPGLRDDAELAARPAFDLEGAEPTPEQRARVFARKTYRFYEGGAVTQADLLGLLGATVTAGYSRKAADLAPAELGQILRWFGQYISEERLLPKYGYASPGALYATQMYFELEGVGGLKPGYYYYQPVRHQLVLISEREATGKATAQIHFIGKKSGIEPVYKNNILEVLEIETGHMVGLFEQILPAYGLDIHDRAYEPAVKDLLDVADEDYYLGTFELVPHAGARDDQAEVYVQTHGGKVAGLPEGQYRYENGELTRFSDDIVLKKHVIAINQSVYQAASFGISVYSRAEEEWLKYITLGKKLQHLMMNGLNLGFMSSGYSSKTGNPLPASRRMDAVLGANGVDSAPMYFFVGGRISDEQIGHEGMREDSVHMRGPAELIRDDLVSFLPDYMIPNRVVVFDRLPLSANGKIDVKALAASDQVNAELVERPFVAPRTETEKEIAAVWEKALRRENASVQDDFFESGGNSLIAVGLVRELNARLGVSLPLQSVLESPTIEKLARRLEREVAQESSRFVRLHAETGKARPVICWPGLGGYPMNLRSLAGEIGLGRSFYGVQSYGINEGETPYETITEMAKKDIEALKEIQPAGPYTLWGYSFGARVAFETAYQLEQAGEKVDNLFLIAPGSPKVRAENGKVWGREASFANRGYTTILFSVFTGTISGPDLDRCLETVTDEASFAEFISELKGIDVDLARRIISVVGQTYEFEYSFHELAERTLQAPISIFKAVGDDYSFLENSSGYSAEPPTVIDLDADHYSLLREDIGELVKHIRYLLGE			Activity retained compared to recently purified BpsA ([3]; stored at 4° C.): 96%; Activity retained compared to recently purified BpsA ([3]; stored at 25° C.): 15%; BpsA activity in the presence of DMSO ([4]; 0-35% DMSO v/v, end-point A590 after full solubilisation): impaired at all concentrations of DMSO; DMSO concentration up to which BpsA retains partial functionality ([4]; 500 μM L-glutamine, DMSO v/v): up to 35%
